Source: article PMC4703215, “Structural Based Analyses of the JC Virus T-Antigen F258L Mutant Provides Evidence for DNA Dependent Conformational Changes in the C-Termini of Polyomavirus Origin Binding Domains”

Columns and labels:
JCV T-ag OBD wt [1] = biological target: T1, JCV T-ag OBD wt (JC virus (JCV), UniProt P03072 132-261); test: fluorescence anisotropy; ITC: 10 mM Na phosphate pH 7.0, 50 mM NaCl, 5 mM DTT; anisotropy: 20 mM Hepes pH 7.4, 50 mM NaCl, 0.01% NP40, 0.1 mM DTT, 15 nM probe; temperature not stated; conditions: protein: recombinant; tags: expressed from pGEX1λT (GST vector); label: 5' fluorescein (six-carbon linker) on one strand
T1 sequence: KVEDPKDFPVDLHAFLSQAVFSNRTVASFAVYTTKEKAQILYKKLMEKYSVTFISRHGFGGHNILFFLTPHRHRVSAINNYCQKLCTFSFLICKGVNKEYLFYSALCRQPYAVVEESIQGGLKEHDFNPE

JCV T-ag OBD wt [2] = biological target: T1, JCV T-ag OBD wt; test: ITC; ITC: 10 mM Na phosphate pH 7.0, 50 mM NaCl, 5 mM DTT; anisotropy: 20 mM Hepes pH 7.4, 50 mM NaCl, 0.01% NP40, 0.1 mM DTT, 15 nM probe; temperature not stated; conditions: protein: recombinant; tags: expressed from pGEX1λT (GST vector)

B1: TBS probe, single GAGGC (dsDNA)
DNA 1: CCGAGGCCATTCTGAGAATTGAGC
DNA 2: GCTCAATTCTCAGAATGGCCTCGG
Work on B1 yielded a Kd (JCV T-ag OBD wt [1]) of 93 ± 21 nM.

B2: Site II duplex, four GAGGC pentanucleotides (dsDNA)
DNA 1: TACAGGAGGCCGAGGCCGCCTCCGCCTCCAAGC
DNA 2: GCTTGGAGGCGGAGGCGGCCTCGGCCTCCTGTA
For B2, the Kd (JCV T-ag OBD wt [2]) was 172 nM.
